Assay results taken from the RNAGym collection of RNA variant scans (doi:10.7554/elife.80360).

B1: Hammerhead Ribozyme (parent)
chain: ACCGGAUGUGCUUUCCGGUCUGAUGAGUCCGUGAGGACGAAACAG

Variants of: B1
Assay: self-cleavage, relative activity (ratio to wild type); higher = more cleavage; co-transcriptional

Variant	self-cleavage
ACCGGAUGUGCUUUUCGGUCUGAUGAGUCCGUGAGGACGAAACUG	0.664
ACCGGAUGUGCUUUUCGGUCUGAUGAGUCCGUGAGGACGAAACGG	1.21
ACCGGAUGUGCUUUUCGGUCUGAUGAGUCCGUGAGGACGAAACCG	0.596
ACCGGAUGUGCUUUUCGGUCUGAGGAGUCCGUGAGGACGAAACAG	1.35
ACCGGAUGUGCUUUUCGGUCUGACGAGUCCGUGAGGACGAAACAG	0.812
ACCGGAUGUGCUUUUCGGUCUGAAGAGUCCGUGAGGACGAAACAG	0.853
ACCGGAUGUGCUUUCAGGUCUGAUGAGUCUGUGAGGACGAAACAG	1.32
ACCGGAUGUGCUUUCAGGUCUGAUGAGUCGGUGAGGACGAAACAG	0.591
ACCGGAUGUGCUUUCAGGUCUGAUGAGUCAGUGAGGACGAAACAG	0.911
ACCGGAUGUGCUUUUCGGUCUGAUGAGUCCCUGAGGACGAAACAG	0.967
ACCGGAUGUGCUUUUCGGUCUGAUGAGUCCUUGAGGACGAAACAG	0.881
ACCGGAUGUGCUUUUCGGUCUGAUGAGUCCAUGAGGACGAAACAG	0.781
ACCGGAUGUGCUUUUCGGUCUGAUGAGUCCGUGAGGAUGAAACAG	0.82
ACCGGAUGUGCUUUUCGGUCUGAUGAGUCCGUGAGGAAGAAACAG	0.677
ACCGGAUGUGCUUUUCGGUCUGAUGAGUCCGUGAGGAGGAAACAG	0.689
ACCGGAUGUGCUUUUCGGUCUGAUGAGUCCGUGAGUACGAAACAG	0.521
ACCGGAUGUGCUUUUCGGUCUGAUGAGUCCGUGAGCACGAAACAG	0.356
ACCGGAUGUGCUUUUCGGUCUGAUGAGUCCGUGAGAACGAAACAG	0.734
ACCGGAUGUGCUUUCAGGUCUGAUGAGUCCGUGAGGACGAAGCAG	0.296

Variant	self-cleavage
ACCGGAUGUGCUUUCAGGUCUGAUGAGUCCGUGAGGACGAACCAG	0.399
ACCGGAUGUGCUUUCAGGUCUGAUGAGUCCGUGAGGACGAAUCAG	0.27
ACCGGAUGUGCUUUUCGGUCUGAUGAGUCCGUGAGGACGAAACAC	0.646
ACCGGAUGUGCUUUUCGGUCUGAUGAGUCCGUGAGGACGAAACAU	0.822
ACCGGAUGUGCUUUUCGGUCUGAUGAGUCCGUGAGGACGAAACAA	0.842
ACCGGAUGUGCUUUUCGGUCUGAUGAGUCCGUGAGGACGAACCAG	0.351
ACCGGAUGUGCUUUUCGGUCUGAUGAGUCCGUGAGGACGAAUCAG	0.329
ACCGGAUGUGCUUUUCGGUCUGAUGAGUCCGUGAGGACGAAGCAG	0.265
ACCGGAUGUGCUUUUCGGUCUGAUGAGUUCGUGAGGACGAAACAG	0.808
ACCGGAUGUGCUUUUCGGUCUGAUGAGUACGUGAGGACGAAACAG	0.686
ACCGGAUGUGCUUUUCGGUCUGAUGAGUGCGUGAGGACGAAACAG	0.802
ACCGGAUGUGCUUUCAGGUCUGAUGAGUGCGUGAGGACGAAACAG	0.566
ACCGGAUGUGCUUUCAGGUCUGAUGAGUACGUGAGGACGAAACAG	0.417
ACCGGAUGUGCUUUCAGGUCUGAUGAGUUCGUGAGGACGAAACAG	1.06
ACCGGAUGUGCUUUCAGGUCUGAUGAGUCCGUGAGGACGAGACAG	0.352
ACCGGAUGUGCUUUCAGGUCUGAUGAGUCCGUGAGGACGACACAG	0.404
ACCGGAUGUGCUUUCAGGUCUGAUGAGUCCGUGAGGACGAUACAG	0.37
ACCGGAUGUGCUUUUCGGUCUGAUGAGUCCGUGAUGACGAAACAG	0.701
ACCGGAUGUGCUUUUCGGUCUGAUGAGUCCGUGACGACGAAACAG	0.601

Variant	self-cleavage
ACCGGAUGUGCUUUUCGGUCUGAUGAGUCCGUGAAGACGAAACAG	0.756
ACCGGAUGUGCUUUUCGGACUGAUGAGUCCGUGAGGACGAAACAG	0.344
ACCGGAUGUGCUUUUCGGCCUGAUGAGUCCGUGAGGACGAAACAG	0.581
ACCGGAUGUGCUUUUCGGGCUGAUGAGUCCGUGAGGACGAAACAG	0.327
ACCGGAUGUGCUUUCAGGUCUGAUGAGUCCGUGAGGGCGAAACAG	0.874
ACCGGAUGUGCUUUCAGGUCUGAUGAGUCCGUGAGGUCGAAACAG	0.616
ACCGGAUGUGCUUUCAGGUCUGAUGAGUCCGUGAGGCCGAAACAG	0.898
ACCGGAUGUGCUUUUCGGUCUGAUUAGUCCGUGAGGACGAAACAG	0.314
ACCGGAUGUGCUUUUCGGUCUGAUAAGUCCGUGAGGACGAAACAG	0.366
ACCGGAUGUGCUUUUCGGUCUGAUCAGUCCGUGAGGACGAAACAG	0.314
ACCGGAUGUGCUUUCAGGUUUGAUGAGUCCGUGAGGACGAAACAG	0.567
ACCGGAUGUGCUUUCAGGUAUGAUGAGUCCGUGAGGACGAAACAG	0.474
ACCGGAUGUGCUUUCAGGUGUGAUGAGUCCGUGAGGACGAAACAG	0.316
ACCGGAUGUGCUUUUCGGUCUGAUGAGUCCGUGAGGACAAAACAG	0.347
ACCGGAUGUGCUUUUCGGUCUGAUGAGUCCGUGAGGACUAAACAG	0.37
ACCGGAUGUGCUUUUCGGUCUGAUGAGUCCGUGAGGACCAAACAG	0.407
ACCGGAUGUGCUUUCAGGUCUGCUGAGUCCGUGAGGACGAAACAG	0.32
ACCGGAUGUGCUUUCAGGUCUGUUGAGUCCGUGAGGACGAAACAG	0.305
ACCGGAUGUGCUUUCAGGUCUGGUGAGUCCGUGAGGACGAAACAG	0.357
